Key:
[1] = substrate: OC[C@H]1O[C@H](O[C@H]2[C@H](O)[C@@H](O)[C@@H](O[C@H]3[C@H](O)[C@@H](O)C(O)O[C@@H]3CO)O[C@@H]2CO)[C@H](O)[C@@H](O)[C@@H]1O; assay: purified protein, by the assay type; conditions: other: 30 minutes, 100 ng of enzyme; starch supplied by Avebe, 8100 Da
[2] = substrate: OC[C@H]1O[C@H](O[C@H]2[C@H](O)[C@@H](O)[C@@H](O[C@H]3[C@H](O)[C@@H](O)[C@@H](O[C@H]4[C@H](O)[C@@H](O)[C@@H](O[C@H]5[C@H](O)[C@@H](O)[C@@H](O[C@H]6[C@H](O)[C@@H](O)[C@@H](O[C@H]7[C@H](O)[C@@H](O)C(O)O[C@@H]7CO)O[C@@H]6CO)O[C@@H]5CO)O[C@@H]4CO)O[C@@H]3CO)O[C@@H]2CO)[C@H](O)[C@@H](O)[C@@H]1O; assay: Kinetic constants of X. dendrorhous α-glucosidase glycosylhydrolase activity; format: biochemical, Xanthophyllomyces dendrorhous; conditions: other: 30 minutes, 100 ng of enzyme; starch supplied by Avebe, 8100 Da
Protocol: The tests were carried out in 30 minutes and with 100 ng of enzyme for each reaction.

B1: X. dendrorhous α-glucosidase (purified enzyme) (Phaffia rhodozyma) (protein)
chain: SSPSSFQGPSELLSNQKRYSKRDNTGSYSLNTTACGGYSVSSVDSTGNGLQAHLSLNGEPCRAFGVDYTDLLVDVEYQTQERIRVHIYDADKIEFQVPENIFPKPQSDNGLDLNQTDLVFNHQENPFAFWITRRNASDDETPIFDTRPSSKTSVDYPIEPPYGGVEKVNSSTAVPDESGGLVFEAGYLEISSFLPKDANIFGLGEVVATSGFRRNSSATVQTMWARDVGDPENQNMYGDHPIYIETRFNKNGASSSHGVFLLNSEGMDIVLRDEVIEYRPLGGSLDFYFISGPTPIKVIEQYSEISGRSLLHPYWSYGFHLCRWGYDNITQNREIVQSMKDANLPLETFWNDIDWMDTYRNFVPAPNRFEPADYKAFVDELHANNQHYIPIIDAAIGVVTNDTDVYDTFTAGDAANTYIKNPDGSNYIGKVWPGYTVFPDWFQNSTQDWWTEAFINYSQIVEFDGIWIDMNEPSSFCEGSCGSSADLNNITPPFLLPGQPGAVTLIDGTFPEGYNATLWGYSGNLTINGSLTFNSTPPNYGRPDRRSQLSRRVGQGVDVNTPAYEIHNALDKLAISTVSPNATHLNGDIQDIDVHNLFGYMEGIATFNVWNTYKPNKRPFIVSRSTFPGAGTKVAHWLGDNYSTWKYLRYVNQGVLQFQIYGIPMVGADTCGFAGNTDEELCNRWMQLAAFYPFFRNHNIKSALAQEPFRWDSVAEATRNATAIRYALLPYWYTLFYQASSVGTPPIRALFYEFDQEELLSVDAQFLVGRNVLVTGAMYPNITSVEGYLPGGDDEIWRDWYTHEVIKPTSDDGKYDFPAPLGHIPVTIRSGAIFLLHSEPGMTVYDTRESPYSILVSLDKSSEAEGYAFIDDGESFPVTDSREVHLGAAEGKVYGWTSGSYNVGQKLAQVTVLGVKTEPSTVTFNGQAITTGWTYEADLERFVVTGLQGDLNGGWELDWA
Question: With B1 as the protein, how does the Km [1] read?
Answer: 550 µM

Question: And the kcat [1]?
Answer: 4 s⁻¹

Question: And the kcat/Km [1]?
Answer: 7270 M⁻¹ s⁻¹

Question: And the Km [2]?
Answer: 860 µM

Question: And the kcat [2]?
Answer: 5 s⁻¹

Question: And the kcat/Km [2]?
Answer: 5800 M⁻¹ s⁻¹

Reference: patent US20090275085A1, “Enzyme for Obtaining Prebiotic Oligosaccharides” (CONSEJO SUPERIOR DE INVESTIGACIONES CIENTIFICAS, priority 2004, published 2009)
